Results on one protein are retold here after patent publication US6146862A.

Substrate in this data set: NC(=O)C1=CN([C@@H]2O[C@H](COP(=O)(O)OP(=O)(O)OC[C@H]3O[C@@H](n4cnc5c(N)ncnc54)[C@H](O)[C@@H]3O)[C@@H](O)[C@H]2O)C=CC1
Briefly: purified protein, by the assay type. As to conditions: other: recombinant enzyme purified from E. coli JM109/pSDE1, assay 50 mM Tris-HCl pH 8.5, 0.06 mM DCIP, 30° C.

B1: Bacillus stearothermophilus UK-563 thermostable diaphorase, recombinant (E. coli JM109/pSDE1), SEQ ID No.1 (Geobacillus stearothermophilus) (protein)
chain: MTNVLYITAHPHDDTQSYSMAVGKAFIDTYKQVHPDHEVIHLDLYKEYIPEIDVDVFSGWGKLRSGKSFEELSDEEKAKVGRMNELCEQFISADKYVFVTPMWNFSFPPVLKAYIDAVAVAGKTFKYTEQGPVGLLTDKKALHIQARGGFYSEGPAAEMEMGHRYLSVIMQFFGVPSFEGLFVEGHAAVPEKAEEIKANAIARAKDLAHTF
A word on the Km: it is the concentration of substrate that gives half-maximal velocity. Regarding B1, the Km turned out to be 500 µM.
